Experimental findings from paper PMC3531509 are described below.

This assay has as its target rabbit muscle actin (rabbit) (UniProt P68135). Nature of the assay: ELISA.

The substance “Calmodulin-like calcium binding protein EhCaBP3 of Entamoeba histolytica (recombinant, wild type) (natural protein)” showed a percent inhibition of binding by EGTA of 75%.
